No end group written: not given here. *: point of attachment. 5FAM = O=C1OC2(c3ccc(O)cc3Oc3cc(O)ccc32)c2ccc(C(=O)*)cc21; TQ2 = quencher; TQ3 = quencher

Results on 2 substances are retold here after patent US20250290928A1, “METHOD, KIT AND DEVICE FOR DETECTING EXTRACELLULAR VESICLES” (priority 2022, published 2025).

In test [1] the target is T1, MMP14 in the MDA-MB-231-derived extracellular vesicles (Homo sapiens, UniProt P50281).
T1 construct: in terms of intact MMP14 with a molecular weight of 70 kDa
Put plainly: Digital detection of MDA-MB-231-derived extracellular vesicles through MMP14 activity in liquid droplets. Format: biochemical. The protocol: The concentration of the solution is 5 μg/mL.
Liquid droplets were prepared by a pumping method of an SPG emulsification membrane through use of the reaction solution for forming liquid droplets prepared in the foregoing. A dispersed phase and a continuous phase are shown below.
An SPG pumping connector (pore diameter: 10 μm, pore diameter: 5 μm, manufactured by SPG Technology Co., Ltd.) was used as the SPG emulsification membrane, and the number of times of pumping reciprocations was set to 10. Thus, liquid droplets each having a diameter of from about 1 μm to about 10 μm were obtained.
The emulsified liquid prepared in the foregoing were subjected to a reaction through incubation at 37° C. to promote the generation of fluorescence.
Next, the images acquired with an SPG pumping connector with a pore diameter of 10 μm were analyzed in the same manner as in Example 19. The above-mentioned fluorescence microscope images after 4 hours of reaction were subjected to predetermined image processing to provide a particle diameter distribution of the liquid droplets shown in FIG. 67, and obtain a histogram representing the number of liquid droplets each showing a fluorescence intensity included in each fraction of fluorescence intensity obtained by dividing fluorescence intensities into intervals of a constant value in each particle diameter range.
Further, when the concentration of the extracellular vesicles having MMP14 activity was calculated through use of the above-mentioned equation (1) from the total number of liquid droplets in each particle diameter range and the number of positive liquid droplets identified from the histogram, the concentration was able to be estimated as described below.

In test [2] the test system is MMP in the MDA-MB-231-derived extracellular vesicles. The test can be described thus: Evaluation of MMP activity of MDA-MB-231-derived extracellular vesicles with 96-well plate (SensoLyte 520 MMP Substrate Sampler Kit). The test is classed as biochemical, Human. Particulars: MP, EV 3.3 μg/mL. The protocol:
50 μL of the MMP detection solution was added to 50 μL of each of the samples, a reaction was performed at 30° C., and MMP activity was evaluated.
50 μL of each of the MMP detection solutions was added to 50 μL of each of the samples, a reaction was performed at 30° C., and MMP activity was evaluated.

The mark [3] stands for this setting: Example 32, 4 h, droplet diameter 3-4 μm.
Where [4] appears, read: Example 32, 4 h, droplet diameter 4-5 μm.
Setting [5] is: Example 32, 4 h, droplet diameter 5-6 μm.
The mark [6] stands for this setting: Example 32, 4 h, droplet diameter 6-7 μm.
Where [7] appears, read: Example 32, 4 h, droplet diameter 7-8 μm.
The mark [8] stands for this setting: Example 32, 4 h, droplet diameter <3 μm.
[9] abbreviates: Example 32, 4 h, droplet diameter >8 μm.

Regarding “[5-FAM]GRIGFLRTAK(TQ2)[OH] (5FAM-GRIGFLRTAK(TQ2)-OH) [Custom #1]”, the Extracellular vesicle concentration in test [1] (Example 32) was 1.9×10^9 /μg of protein. Further, the “Concentration (extracellular vesicles having MMP14 activity)” value in test [1] (setting [3]) came to 1.06e+10 mL⁻¹; in test [1] (setting [4]), 9.05e+09 mL⁻¹; in test [1] (setting [5]), 9.85e+09 mL⁻¹; in test [1] (setting [6]) it was 9.03e+09 mL⁻¹; in test [1] (setting [7]), 9.01e+09 mL⁻¹; in test [1] (setting [8]), 1.04e+10 mL⁻¹. The “Concentration (extracellular vesicles having MMP14 activity)” value in test [1] (setting [9]) worked out at 8.68e+09 mL⁻¹. Besides, the “Expected value λ” value in test [1] (setting [3]) is given as 0.217; in test [1] (setting [4]), 0.416; in test [1] (setting [5]), 0.816; in test [1] (setting [6]), 1.293; in test [1] (setting [7]) it was 1.910; in test [1] (setting [8]), 0.047. Also, the “Expected value λ” value in test [1] (setting [9]) is listed as 3.296. The Number of positives in test [1] (setting [3]) worked out at 15; in test [1] (setting [4]), 16; in test [1] (setting [5]), 29; in test [1] (setting [6]) it was 37; in test [1] (setting [7]) it was 23; in test [1] (setting [9]) it was 26. Moreover, the Number of positives in test [1] (Example 32, SPG pore 10 μm, EV 5 μg/mL, reporter 5 μM, 37° C., 4 h, droplet diameter <3 μm) is listed as 8. Also, the Positive ratio stood at 0.195 in test [1] (setting [3]); 0.340 in test [1] (setting [4]); 0.558 in test [1] (setting [5]); 0.725 in test [1] (setting [6]); 0.852 in test [1] (setting [7]); 0.046 in test [1] (setting [8]). Further, the Positive ratio in test [1] (setting [9]) is listed as 0.963. The “average of the extracellular vesicle concentrations” value in test [1] (Example 32, all droplet diameter ranges, reaction solution 5.0 μg of protein/mL) worked out at 9.5e+09 mL⁻¹.

For “TAMRA-GGPLGLAGGK(TQ3) ({TAMRA}-GGPLGLAGGK(TQ3)) [Custom #2T]”, the “Fluorescence change after 2 hours of reaction at 30° C.” value in test [2] (1.25 μM Custom #2T with 1.25 μM SB2) is recorded as 1,319 ΔRFU; in test [2] (1.25 μM Custom #2T with 1.25 μM SB6), 1,527 ΔRFU; in test [2] (1.25 μM Custom #2T with 1.25 μM SB7) it was 626 ΔRFU; in test [2] (1.25 μM Custom #2T with 1.25 μM SB9), 469 ΔRFU; in test [2] (1.25 μM Custom #2T with 1.25 μM SB10), 1,030 ΔRFU; in test [2] (5 μM Custom #2T with 5 μM SB2), 710 ΔRFU. Further, the “Fluorescence change after 2 hours of reaction at 30° C.” value in test [2] (5 μM Custom #2T with 5 μM SB6) is 1,161 ΔRFU; in test [2] (5 μM Custom #2T with 5 μM SB7) it was 288 ΔRFU; in test [2] (5 μM Custom #2T with 5 μM SB9) it was 153 ΔRFU; in test [2] (5 μM Custom #2T with 5 μM SB10), 592 ΔRFU.
